Measured values: patent US7838501

Legend:
[1] = biological target: chimeric transactivator λR-GyrB-NFκB (wild type λ repressor N-terminal domain) (bacteriophage λ; Escherichia coli); assay: cell-based or functional assay
[2] = biological target: chimeric transactivator λR-GyrB-NFκB with λ repressor mutation S93G (mutant clone 25) (bacteriophage λ; Escherichia coli); assay: cell-based or functional assay

Question: For “chimeric transactivator λR-GyrB-NFκB (wild type λ repressor N-terminal domain)”, which inducibility of luciferase activity, 5 nM coumermycin 40 hr, transient transfection of 293A cells [1] is on record?
Answer: 50 fold

Question: What does the source list for “chimeric transactivator λR-GyrB-NFκB with λ repressor mutation S93G (mutant clone 25)”?
Answer: Activation factor, clone 5 [2]: 5100 fold; Activation factor, clone 8 [2]: 1500 fold; Activation factor, clone 10 [2]: 3200 fold; Activation factor, clone 18 [2]: 5800 fold; Activation factor, clone 23 [2]: 14000 fold; Activation factor, clone 28 [2]: 5100 fold; Activation factor, clone 34 [2]: 5800 fold; Activation factor, clone 44 [2]: 13000 fold; Activation factor, clone 45 [2]: 1600 fold; Activation factor, clone 47 [2]: 2100 fold; Luciferase Activity, With Coum (5 nM), clone 5 (Arbitrary Light Units/µg protein) [2]: 47500; Luciferase Activity, With Coum (5 nM), clone 8 (Arbitrary Light Units/µg protein) [2]: 52400; Luciferase Activity, With Coum (5 nM), clone 10 (Arbitrary Light Units/µg protein) [2]: 1590; Luciferase Activity, With Coum (5 nM), clone 18 (Arbitrary Light Units/µg protein) [2]: 7450; Luciferase Activity, With Coum (5 nM), clone 23 (Arbitrary Light Units/µg protein) [2]: 8240; Luciferase Activity, With Coum (5 nM), clone 28 (Arbitrary Light Units/µg protein) [2]: 12300; Luciferase Activity, With Coum (5 nM), clone 34 (Arbitrary Light Units/µg protein) [2]: 47000; Luciferase Activity, With Coum (5 nM), clone 44 (Arbitrary Light Units/µg protein) [2]: 30200; Luciferase Activity, With Coum (5 nM), clone 45 (Arbitrary Light Units/µg protein) [2]: 1910; Luciferase Activity, With Coum (5 nM), clone 47 (Arbitrary Light Units/µg protein) [2]: 8530; Luciferase Activity, Without Coum, clone 5 (Arbitrary Light Units/µg protein) [2]: 9.4; Luciferase Activity, Without Coum, clone 8 (Arbitrary Light Units/µg protein) [2]: 35.8; Luciferase Activity, Without Coum, clone 10 (Arbitrary Light Units/µg protein) [2]: 0.5; Luciferase Activity, Without Coum, clone 18 (Arbitrary Light Units/µg protein) [2]: 1.3; Luciferase Activity, Without Coum, clone 23 (Arbitrary Light Units/µg protein) [2]: 0.6; Luciferase Activity, Without Coum, clone 28 (Arbitrary Light Units/µg protein) [2]: 2.4; Luciferase Activity, Without Coum, clone 34 (Arbitrary Light Units/µg protein) [2]: 8.1; Luciferase Activity, Without Coum, clone 44 (Arbitrary Light Units/µg protein) [2]: 2.4; Luciferase Activity, Without Coum, clone 45 (Arbitrary Light Units/µg protein) [2]: 1.2; Luciferase Activity, Without Coum, clone 47 (Arbitrary Light Units/µg protein) [2]: 4.1; coumermycin concentration of maximal induction of luciferase, stable clone S93G-5, 40 hr [2]: 2.5 to 5 nM; induction of luciferase activity, 5 nM coumermycin 40 hr, 293A cells with stable pLuc [2]: 1460 fold; lowest coumermycin concentration with apparent induction of luciferase expression, stable clone S93G-5, 40 hr [2]: 0.5 nM; suppression of coumermycin-induced (5 nM) luciferase expression by 5 µM novobiocin, 40 hr [2]: > 98%
